The results in this text go back to US20200199244A1 (published 2020).

To fix the notation:
T1: wild type cynomolgus monkey CD40 Fc fusion (cynomolgus monkey (Macaca …))
T1 construct: also called wt-cyno-CD40; wt-cCD40; not shown: human IgG1 Fc
T1 chain: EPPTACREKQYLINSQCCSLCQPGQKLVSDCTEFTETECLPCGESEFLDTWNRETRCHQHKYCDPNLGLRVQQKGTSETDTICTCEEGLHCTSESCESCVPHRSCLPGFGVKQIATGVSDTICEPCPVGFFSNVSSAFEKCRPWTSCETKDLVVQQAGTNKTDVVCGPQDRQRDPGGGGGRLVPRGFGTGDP

T2: human CD40 (H76R, W109L, L121P) Fc fusion (human)
T2 construct: Made by site-directed mutagenesis of the wild type construct; no cleavage site is stated; also called hCD40-M5; hCD40-M5 (H76R, W109L, L121P); not shown: human IgG1 Fc
T2 chain: T1 chain with S95A, L106S, R142H, Q172L

T3: wild type cynomolgus monkey CD40 Fc fusion (cynomolgus monkey (Macaca …))
T3 construct: also called wt-cCD40; wt-cyno-CD40; not shown: human IgG1 Fc
T3 chain: T1 chain

T4: human CD40 (H76R, W109L, L121P) Fc fusion (human)
T4 construct: Same construct as wt-hCD40 with H76R, W109L and L121P; also called hCD40-M5; hCD40-M5 (H76R, W109L, L121P); not shown: human IgG1 Fc
T4 chain: T1 chain with S95A, L106S, R142H, Q172L

B1: BMS3h-56-2 (other)
VH: EVQLLESGGGLVQPGGSLRLSCAASGFTFRDYEMWWVRQAPGKGLERVSAINPQGTRTYYADSVKGRFTISRDNSKNTLYLQMNSLRAEDTAVYYCAKLPFTFDDWGQGTLVTVSS
notes: Anti-human CD40 domain antibody (dAb), a single human VH domain
B2: BMS3h-56-5 (other)
VH: B1 VH with K65M
notes: as for B1
B3: BMS3h-56-206 (other)
VH: B1 VH with Y95H, F101M, T102F, D104E, S116N
notes: as for B1
B4: BMS3h-56-202 (other)
VH: B1 VH with F101T, T102Y, D104S, W106R
notes: as for B1
B5: BMS3h-37-2 (other)
VH: EVQLLESGGGLVQPGGSLRLSCAASGFTFEWYEMQWVRRAPGKGLEWVSAISGDGYRTYYADSVKGRFTISRDNSKNTLYLQMNSLRAEDTAVYYCAKELGYFDYWGRGTLVTVSS
notes: Anti-human CD40 domain antibody (dAb), single VH domain
B6: BMS3h-37-11 (other)
VH: B5 VH with R39K, W106R
notes: as for B5
B7: BMS3h-38-211 (other)
VH: EVQLLASGGGLVQPGGSLRLSCAASGFTFEEEEMIWVRQAPGKGLEWVSAISRQGGSTYYADSVKGRFTISRDNSKNTLYLQMNSLRAEDTAVYYCGKEPFRYDYWGQGTLVTVSS
notes: as for B5
B8: BMS3h-38-217 (other)
VH: B7 VH with Q54R, G56Y
notes: as for B5
B9: BMS3h-38-215 (other)
VH: B7 VH with R53G, Q54L, G56W
notes: as for B5
B10: BMS3h-231 (other)
VH: EVQLLESGGGLVQPGGSLRLSCAASGFTFSAYNMWWARQAPGKGLEWVSWINSTGSRTYYADSVKGRFTISRDNSKNTLYLQMNSLRAEDTAVYYCAKNWHRGRFDYWGQGTLVTVSS
notes: dAb, single VH
B11: BMS3h-257 (other)
VH: EVQLLESGGGLVQPGGSLRLSCAASGFTFQNYQMAWVRQAPGKGLEWVSTISGTGKNTYYADSVKGRFTISRDNSKNTLYLQMNSLRAEDTAVYYCAKTPQNYFSVRRFDYWGQGTLVTVSS
notes: dAb, single VH
B12: BMS3h-233 (other)
VH: EVQLLESGGGLVQPGGSLRLSCAASGFTFAHYNMRWVRQAPGKGLEWVSTITKTGFRTYYADSVKGRFTISRDNSKNTLYLQMNSLRAEDTAVYYCAKAGQFDFDYWGQGTLVTVSS
notes: dAb, single VH
B13: BMS3h-287 (other)
VH: EVQLLESGGGLVQPGGSLRLSCAASGFTFTNYRMSWVRQAPGKGLEWVSAIDDLGVSTYYADSVKGRFTISRDNSKNTLYLQMNSLRAEDTAVYYCAKWRLKNSQPTDFDYWGQGTLVTVSS
notes: dAb, single VH

Changes are numbered by the printed parent chain. Where “and” joins values, the source holds several entries; their conditions need not be identical. Identical values can stand only once.

In one experiment the target is T1, wild type cynomolgus monkey CD40 Fc …. Nature of the experiment: SPR (ProteOn XPR36), CD40-Fc captured via anti-human IgG(Fc), dAb as analyte, 25 C.
Method: (§1) Assays were performed on a BioRad ProteOn XPR36 SPR instrument. The SPR surfaces were prepared by immobilizing 8 μg/ml anti-human IgG(Fc) antibody (Biacore/GE Healthcare) in 10 mM sodium acetate pH 4.5 on a BioRad GLC sensor chip using standard ethyl(dimethylaminopropyl) carbodiimide (EDC)/N-hydroxysuccinimide (NHS) chemistry, with ethanolamine blocking. The running buffer for immobilization and kinetic binding analysis was 10 mM sodium phosphate, 130 mM sodium chloride, 0.05% tween 20, pH 7.1. CD40-Fc fusion proteins at concentrations of 20 μg/ml were captured in the vertical orientation on these surfaces via the Fc tail, and reference surfaces lacking CD40-Fc proteins were used for reference subtraction. […] The surfaces were regenerated in both horizontal and vertical orientations with 30 s pulses of 3 M MgCl₂ followed by running buffer at 60 μl/min. Sensogram data was double-referenced and then fitted to a 1:1 Langmuir model using BioRad ProteOn Manager V.2.1.0.38 software, to determine the association rate constant (ka), the dissociation rate constant (kd), and the equilibrium dissociation constant (KD).
B1: the binding result was “no binding (tested: 405 nM (highest dAb concentration))”.

Regarding B2, the binding result was “no binding (tested: 405 nM (highest dAb concentration))”.

As for B3, the binding result is listed as “no binding (tested: 405 nM (highest dAb concentration))”.

As for B4, the binding result is “no binding (tested: 405 nM (highest dAb concentration))”.

A further experiment addresses T5, human CD40 (W109L, L121P) Fc fusion (human, UniProt P25942 21-193).
T5 construct: Made by site-directed mutagenesis of the wild type construct; no cleavage site is stated; also called hCD40-M4; hCD40 M4 (W109L, L121P); not shown: human IgG1 Fc
The description is as above.
With B2, the binding result is “no binding (tested: 405 nM (highest dAb concentration))”.

As to B3, the binding result is given as “no binding (tested: 405 nM (highest dAb concentration))”.

For B4, the binding result was “no binding (tested: 405 nM (highest dAb concentration))”.

In the next experiment the target is T2, human CD40 (H76R, W109L, L121P) Fc …. The experiment is described as above.
Method: as §1
For B2, the binding result is reported as “no binding (tested: 405 nM (highest dAb concentration))”.

For B3, the binding result was “no binding (tested: 405 nM (highest dAb concentration))”.

On to B4, for which the binding result is “no binding (tested: 405 nM (highest dAb concentration))”.

For another experiment, the target named is T6, wild type human CD40 Fc fusion (human, UniProt P25942 21-193).
T6 construct: also called wt-hCD40; not shown: human IgG1 Fc
The experiment in a line: SPR, ProteOn XPR36; CD40-Fc captured, dAb analyte; 1:1 fit;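 note: CD40-Fc captured on anti-human IgG(Fc) surface of a GLC chip, buffer pH 7.1, sensorgrams double-referenced against surfaces without CD40-Fc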; repeat.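 Note: CD40-Fc held on a GLC chip by an immobilized anti-human IgG(Fc) antibody, sensorgrams double-referenced against CD40-free surfaces, running buffer sodium phosphate with NaCl and Tween 20 at pH 7.1.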 In general terms: SPR reads the build-up and loss of mass on a sensor chip optically.
A word on the Kd: it is the concentration at which binding is half-saturated. A word on the koff: it is the rate constant with which the complex falls apart. Broadly, the kon is the second-order rate constant of association. In turn, B5 had a Kd of 2 nM, an off-rate (koff) of 0.000426 s⁻¹ and a kon of 213000 M⁻¹ s⁻¹.

Turning to B6, the equilibrium dissociation constant (Kd) was found to be 2.28 nM, the koff is 0.00064 s⁻¹ and the kon stood at 281000 M⁻¹ s⁻¹.

B7: the equilibrium dissociation constant (Kd) worked out at 6.08 nM, the koff worked out at 0.000728 s⁻¹ and the kon was found to be 120000 M⁻¹ s⁻¹.

B8 gave a Kd of 2.37 nM, a koff of 0.00034 s⁻¹ and a kon of 144000 M⁻¹ s⁻¹.

For the molecule B9, the affinity, expressed as Kd, was 6.02 nM; the koff was 0.00082 s⁻¹; the on-rate (kon) turned out to be 136000 M⁻¹ s⁻¹.

The target in another experiment is T3, wild type cynomolgus monkey CD40 Fc …. Nature of the experiment: SPR, ProteOn XPR36; CD40-Fc captured, dAb analyte.
Method: as §1
With B5, the binding result is “no binding (tested: dAb tested up to 405 nM)”.

Regarding B6, the binding result is listed as “no binding (tested: dAb tested up to 405 nM)”.

Regarding B7, the binding result is recorded as “no binding (tested: dAb tested up to 405 nM)”.

In the case of B8, the binding result is on record as “no binding (tested: dAb tested up to 405 nM)”.

Consider B9, for which the binding result is recorded as “no binding (tested: dAb tested up to 405 nM)”.

For a further experiment, the target named is T7, human CD40 (W109L, L121P) Fc fusion (human, UniProt P25942 21-193).
T7 construct: Same construct as wt-hCD40 with W109L and L121P; also called hCD40-M4; hCD40 M4 (W109L, L121P); not shown: human IgG1 Fc
Nature of the experiment: SPR, ProteOn XPR36; CD40-Fc captured, dAb analyte.
Consider B5, for which the binding result is “no binding (tested: dAb tested up to 405 nM)”.

B6: the binding result was “no binding (tested: dAb tested up to 405 nM)”.

On to B7, for which the binding result is on record as “no binding (tested: dAb tested up to 405 nM)”.

For the molecule B8, the binding result is given as “no binding (tested: dAb tested up to 405 nM)”.

B9: the binding result was “no binding (tested: dAb tested up to 405 nM)”.

Another experiment deals with T8, human CD40 (W109R) Fc fusion (Chimpanzee CD40) (human, UniProt P25942 21-193).
T8 construct: Same construct as wt-hCD40 with W109R (the residue of chimpanzee CD40); also called hCD40-M3; hCD40 M3 (W109R); not shown: human IgG1 Fc
Nature of the experiment: SPR, ProteOn XPR36; CD40-Fc captured, dAb analyte.
For B5, the binding result was “no binding (tested: dAb tested up to 405 nM)”.

Regarding B6, the binding result is listed as “no binding (tested: dAb tested up to 405 nM)”.

Consider B7, for which the binding result is “no binding (tested: dAb tested up to 405 nM)”.

Take B8: the binding result is reported as “no binding (tested: dAb tested up to 405 nM)”.

With B9, the binding result was “no binding (tested: dAb tested up to 405 nM)”.

The target of the next experiment is T4, human CD40 (H76R, W109L, L121P) Fc …. The experiment in a line: SPR, ProteOn XPR36; CD40-Fc captured, dAb analyte.
Method: as §1
With B5, the binding result was “no binding (tested: dAb tested up to 405 nM)”.

With B6, the binding result is recorded as “no binding (tested: dAb tested up to 405 nM)”.

B7: the binding result is listed as “no binding (tested: dAb tested up to 405 nM)”.

With B8, the binding result is given as “no binding (tested: dAb tested up to 405 nM)”.

For the molecule B9, the binding result was “no binding (tested: dAb tested up to 405 nM)”.

For a further experiment, the target named is T9, human CD40 (H76R) Fc fusion (human, UniProt P25942 21-193).
T9 construct: also called hCD40-M1; hCD40 M1 (H76R); not shown: human IgG1 Fc
Nature of the experiment: SPR, ProteOn XPR36; CD40-Fc captured, dAb analyte; 1:1 fit.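 Note: CD40-Fc captured on anti-human IgG(Fc) surface of a GLC chip, buffer pH 7.1, sensorgrams double-referenced against surfaces without CD40-Fc.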
Take B5: binding was characterised by a dissociation constant (Kd) of 2.58 nM, the koff turned out to be 0.000562 s⁻¹ and the association rate constant (kon) was found to be 217000 M⁻¹ s⁻¹.

The molecule B6 had a Kd of 2.39 nM, a koff of 0.000717 s⁻¹ and a kon of 300000 M⁻¹ s⁻¹.

Turning to B7, the Kd stood at 3.98 nM, the off-rate constant (koff) was 0.00051 s⁻¹ and the on-rate (kon) turned out to be 128000 M⁻¹ s⁻¹.

For the molecule B8, the Kd was 3.41 nM, the koff came to 0.000481 s⁻¹ and the on-rate (kon) turned out to be 141000 M⁻¹ s⁻¹.

Consider B9, for which the dissociation constant Kd worked out at 3.03 nM, the dissociation rate constant (koff) stood at 0.00053 s⁻¹ and the association rate constant (kon) turned out to be 175000 M⁻¹ s⁻¹.

Another experiment concerns the target T6, wild type human CD40 Fc fusion. Described as above.
Method: as §1
Molecule B5 returned a Kd of 1.96 nM, an off-rate constant (koff) of 0.000417 s⁻¹ and an association rate constant (kon) of 212000 M⁻¹ s⁻¹.

For the molecule B6, the Kd was found to be 1.92 nM, the koff was 0.00056 s⁻¹ and the kon worked out at 291000 M⁻¹ s⁻¹.

As to B7, binding was put at a Kd of 3.26 nM, the koff stood at 0.000362 s⁻¹ and the kon was 111000 M⁻¹ s⁻¹.

For B8, the Kd came out at 2.34 nM, the koff is 0.000296 s⁻¹ and the kon is 127000 M⁻¹ s⁻¹.

B9: the equilibrium dissociation constant (Kd) is 2.1 nM, the koff came to 0.000288 s⁻¹ and the kon stood at 137000 M⁻¹ s⁻¹.

A further experiment deals with T10, human CD40 (BMS, CY24FEB06-01) (human, UniProt P25942 21-193).
T10 construct: Soluble reagent of the bead and ELISA RBA; It is detected with an anti-human IgG (Fc) mAb, so it may be a CD40-Ig fusion
The experiment in a line: ELISA RBA, competition with IZ-CD40L. For orientation: An ELISA detects its analyte on a solid surface through an enzyme-linked reagent.
Method: Clear walled High Bind, 384-well plates (Corning, UK) were coated with 25 μl of 1 μg/ml Neutravidin in 0.2 M carbonate-bicarbonate buffer, pH 9.4 overnight at 4° C. The following day, assay plates were washed with 0.1% (v/v) Tween PBS buffer, blocked with 1% (w/v) BSA in PBS for 1 hour at room temperature and washed again. […] Following washing of the assay plate, the dAb:human CD40 complex was incubated in the assay plate at room temperature for 2 hours with gentle agitation. […] Absorbance signal was measured using a SpectraMax® M5e plate reader (Molecular Devices) at 450 nm following neutralization with 1M HCl solution.
In general, EC50 refers to the concentration at which the effect is half-maximal. For the molecule B10, the EC50 was 670 nM and 870 nM.

For the molecule B11, the EC50 was 3210 nM and 1340 nM.

Take B12: the EC50 was found to be 2770 nM.

Turning to B13, the concentration for a half-maximal effect (EC50) is > 10000 nM and 6760 nM.
